The source of these data is a protein production outcome set (Wang et al. 2014).

The data set can be described thus: label from the status in PepcDB records.

As to “MTKNAASKARIAYVCTECGTEYSKWQGQCTECGTWNCLSQITLGNAGSVKNPTMKHGNWTGQLDPPKITALKDVQHSEQARISTGIGEFDRVLGGGLVAGAVVLIGGDPGIGKSTLLLQALARMASNLPTLYVTGEESLAQVAGRAVRLDLPLEGLNALAETGIESILQHASSARPRLIVADSVQTLWTEALTAAPGSVSQVRESAAQLVRYAKETGTTVFLVGHVTKEGGIAGPRVLEHMVDAVLYFEGESGSRFRLLRAFKNRFGAVNELGVFAMSEKGLKEVANPSAIFLSGRNSDQPGSCVMVTREGTRPLMVEVQALVDTSPLSNPRRVTVGLEQNRLAMLLAVLHRHGNVLVGDQDVFINIVGGIRVQETAADLPVLLAVRSSLCNRALPEKTIAFGEVGLSGEIRPVPNGEERLREAATHGFKHAIVPKANAPKSAIKDMQIIAVERLDQALEASY”, the protein production entry was “failed”.
Turning to “MTKQIKVGVIGVGQMGQYHAEIYQKLPQVELVAICEFNDERRAEMAEKFQCKAYKDYHELLANTEIEAVIIVLPDNMHRDCVEEAVKHKKHILLEKPLAKELEDGKAMYELTKDYDKVFTVGFLLRFDPRFNMIKQRLDNGELGDIIHLYCRRNSPITGPKRYIGASDLSMHVMIHDIDYINWYMDSEPVKVIAKSRSVLLKEYGMNDVIYAIVTYENGAIACLEACWVLPENSPTIIDDKLELVGTKGVAYVDSCDHGVRFVSEKGVSYPDSRHWYYTNGEVSGDLAEEVMAFINNVANNTKSIITPKEAYDSLRVVDAIERSIAEGKEVSL”, the protein production entry is listed as “failed”.
As for “MTKRHVSLPADAKDVRRAFVSGVDERLSAAETPDELATAVTGTLADLRGERDAYEAWRDGDDVRPAAAARLATLDPRNASLESEYYAEKDEAAFARSKPLQWLWRQFDTTPLADNVDVALPFRRMLAGHLFAGVGEDVRLFKGITMTYGHNIELGDNAVVHDGVHLDDRGELVVGARASVSNGAHLYTHDHDVVDQTDVTNYRTEIGADARVTQGALVRAGVRVGENALVGSRSVVQGDVPAHHIAVGSPAESVRVKPGWEAVAAPLDAGGERRQAERRLDDAVPADAAVYDEFQRDRSPPGER”, the entry is “failed”; as for “MTKSYDVWWQKGQESDDDMARDHQEAWERTIEMLDTSDIKGKTILDVGCNQGGFLRKLYDTTPFKEGVGIDLARLSLEKAETLKGERPLTYYLTDKPQETNRTFDTAVSTSVLYLIEDIPQHAQDLKEVLKPGGVYYASFADLTNNPSRQFMDDTINQYGATPSQNHSLKHIVDSFVDAGFEVAVMKEPVPDVIDLTHYSDFYLSPNDYLQTLYEESFLIKASVKEGIGKLEHHHHHH”, “not failed”; as for “MTKVLILGANGRIARIVEQRLLAETDVQLTLVLRNAGRLLVTSPERETVIQGDVSDSQLLDTVMPNQDIVYANLAGNMALLAQTIITSMNRNHVPHLIWVTGSGLYHETPNPFGAWVEQVVGHAAKNDTRHAARIIESSDIPATIIRAAYMTDDTKIDYELTYKGERFKGTMISRASIADLIMKIIAEPTAYENTSLGIAQPGTDNMLPQVKLMAQHR”, “failed”.
The result for “MTKYKVALFDLDNTLLKTEDASVAALTYALNQDGVEVTPQAIVELMGLPGIDMARELGSSNPAKTIDIFNERINQEVDLIKEYDGIDEMFAGLRELGIEYGIVTSKLRRVFDDEMRSFPKIRAIEKVVLSDDTKKHKPHADPIEFGMQKYFPKLNRADVIYVGDSLFDMQSAHAAGVDFANAGWGAIPANDFSEAEYILKTPTDLLEIV” reads “failed”.
“MTKYQETAKAILAAVGGEKNIQHVTHCVTRLRLVLDNDEIVNDQVIKTIPNVIGVMRKNDQYQIILGNDVNNYYNAFLALGHFENTTREFSSQKKSSILEKLIETIAGVITPLIPALLGGGMLKVIGILLPMLGIASSSSQTVAFINFFGDAAYYFMPIMIAYSAASRFKVTPVLAATVGGILLHPAFVTMVAEGKPLSLFGAPVTLASYGSSVIPILIMVFLMQYIERWINKIVPSVMKSFLQPTLIILISGFLALVVVGPLGVIIGKGLSSAMLSIYHVAPWLALSILGAIMPLVVMTGMHWAFAPIFLAASVATPDVLILPAMLASNLAQGAASLAVAVKAKQKQTRQVAFAAGLSALLAGITEPALYGVTLKFKKPLYAAMISGGLVGAYIGLVNIASYTFVVPSIIGLPQYINPQGGNNFSNAVIAAIATIILTFIITWFLGIDEGENEKSSINAQEHTHIRSGLSKKETLYSPMVGNVLPLSKVPDETFSSKLLGEGLAITPSVGEVYAPFDGEIISLFPTKHAIALKDDKGVEVLIHIGIDTVELNGEGFEQLVKVGDFVKRGQLLLRMDIDFISSKGYSLISPVVVTNSIDQLEIIVKDAETMVTNEDDLLVIL”: the protein production entry is reported as “failed”.
In the case of “MTLAARETAALDSVPEPPLADQLRAMDHLDALEAQSIYILREAFARLKKLALLWSLGKDSNVMIWLARKAFFGRVPFPALHVDTGKKFPEMYAFRDIYAKEWDLDLRVDPCPPIDSVDPTLPPAARSAARKTEGLKLALAKYGFDGLIAGIRRDEEATRAKERVFSPRGVEGGWDVRDQPAEFWDQFNASPPPGAHLRIHPILHWTEADIWAYTKREGIPIIPLYLSQNGKRYRSLGDQDITFPVNSNAASIDEILLELETTKVPERAGRALDHETEDAFERLRVAGYL”, the protein production result is reported as “failed”.
For the sequence “MTLAPPPMPPSDAPAAESAGATLRLVIADALVVILTFIVMFLGVGQLSAEAGLSAVQTAVMTLLTVAAPAQAAAMQIMTSDGATSGVWVAAMVAVIIVNLRFMVMVASILGRLPQAGFLRGTAAVGLVSASSFAIILPRLMSAPPARPLLYCALVGVSCSISAVIGALLGHQLAASVPALVGAALGAMIPIYFATLIARQGKHKALIANALAGAVLVPLAAPLLGSLSLLIVPLGISALSLMIGKGTPANG”, the protein production entry is “failed”.
With “MTLATRSMQPHAVSPGQARSWPLPAAGWLLLAVGVWLAFLSWMRPLALPDEGRYAGVAWDMLRNGSFAVPLIDGMPYFHKPPLYYWLAELSFRLFGVNEWAVRLPSALAAWASAVALYLFVRRHRDAASATLCVLVLATLPLFFGGAQYANMDMLVAGMITLCVLAGADTALRVRGGQAWRAMALATGVCAALAMLAKGLIGLVLPGAILLAWLAWRRDWRGLRALLWPPAILAFAVVAVPWFWLMQVRYPGFFQYFFVHQHFERFAQTGFNNVQPFWFYLPVIAGLALPWSLWAGGLLRKQFWAADADPDGLRRLALVWLAVIVAFFSMPQSKLVGYIMPVLPPLAFLLAEVVMGALRDPAVARATRRMARVSALVAVAICVTAVFVASFNARGSSRELALSLRGELRPDDTLVALHTYPFDLQLYAHAARPMWVVDDWSNPEIPKRDNWRRELYDAVQFEPALGERLLVSADTFQQRLCQAPEGSRYWVWGTAADEEAYAPLRGQAARFADARRSLWLVLVDEAFKGRVCDGTPTGG”, the protein production entry is “failed”.
